Here are results for 1 substance from article doi:10.1101/2022.07.04.498669.

The assay deals with paDXPS as measured by native mass spectrometry (Pseudomonas aeruginosa) (UniProt Q9KGU7). Briefly: native MS.

Substance “paDXPS as measured by native mass spectrometry (from UniProt Q9KGU7 1-627) (enzyme)” displayed a stoichiometry N of 2.
